According to publication PMC8546341, “A Novel β-Glucosidase From Chryseobacterium scophthalmum 1433 for Efficient Rubusoside Production From Stevioside” (Frontiers in Microbiology, 2021):

Tests used:
CsBGL = biological target: T1, CsBGL (Chryseobacterium scophthalmum, UniProt A0A8A3WQK4); assay: inhibition of pNP-β-Glc hydrolysis, p-nitrophenol at […] nm; assay type: biochemical; conditions: substrate pNP-β-Glc 0.1–10 mM, glucose 0–80 mM, 50 mM sodium phosphate pH 7.4, 45 °C; mode not stated
T1 construct: gene bgl
T1 sequence (A0A8A3WQK4 19-775): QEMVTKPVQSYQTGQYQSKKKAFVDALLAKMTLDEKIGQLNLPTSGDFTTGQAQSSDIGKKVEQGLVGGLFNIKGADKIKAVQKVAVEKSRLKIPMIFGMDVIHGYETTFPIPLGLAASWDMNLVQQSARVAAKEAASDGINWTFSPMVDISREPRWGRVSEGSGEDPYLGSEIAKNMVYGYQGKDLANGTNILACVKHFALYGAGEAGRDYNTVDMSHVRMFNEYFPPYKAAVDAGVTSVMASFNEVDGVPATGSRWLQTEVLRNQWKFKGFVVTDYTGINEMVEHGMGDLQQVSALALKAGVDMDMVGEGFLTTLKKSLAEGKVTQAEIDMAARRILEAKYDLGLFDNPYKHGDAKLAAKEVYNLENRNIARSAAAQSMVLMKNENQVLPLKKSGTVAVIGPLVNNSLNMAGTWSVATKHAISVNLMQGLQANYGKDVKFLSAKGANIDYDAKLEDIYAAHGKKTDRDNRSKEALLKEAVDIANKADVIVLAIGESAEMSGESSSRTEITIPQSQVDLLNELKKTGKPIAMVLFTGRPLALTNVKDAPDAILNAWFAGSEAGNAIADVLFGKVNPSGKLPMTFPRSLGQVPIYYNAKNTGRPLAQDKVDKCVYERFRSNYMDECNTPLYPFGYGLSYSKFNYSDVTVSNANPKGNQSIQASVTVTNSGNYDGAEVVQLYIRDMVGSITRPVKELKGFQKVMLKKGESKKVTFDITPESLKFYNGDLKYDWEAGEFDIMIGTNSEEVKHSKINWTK

[1] = substrate: C=C1C[C@@]23CC[C@H]4[C@@](C)(CCC[C@@]4(C)C(=O)O[C@@H]4O[C@H](CO)[C@@H](O)[C@H](O)[C@H]4O)[C@@H]2CC[C@]1(O[C@@H]1O[C@H](CO)[C@@H](O)[C@H](O)[C@H]1O[C@@H]1O[C@H](CO)[C@@H](O)[C@H](O)[C@H]1O)C3; assay: initial velocity of stevioside hydrolysis; assay type: biochemical, Chryseobacterium scophthalmum; conditions: 50 mM sodium phosphate pH 6.5, 47.5 °C
purified protein = substrate: O=[N+]([O-])c1ccc(O[C@@H]2O[C@H](CO)[C@@H](O)[C@H](O)[C@H]2O)cc1; assay: purified protein; assay type: biochemical, Chryseobacterium scophthalmum; conditions: 50 mM sodium phosphate pH 7.4, 45 °C

Molecule: OC[C@H]1OC(O)[C@H](O)[C@@H](O)[C@@H]1O (some centres unmarked) [glucose]
- Ki (CsBGL): 16.4 mM

B1: CsBGL (Chryseobacterium scophthalmum) (protein)
chain: QEMVTKPVQSYQTGQYQSKKKAFVDALLAKMTLDEKIGQLNLPTSGDFTTGQAQSSDIGKKVEQGLVGGLFNIKGADKIKAVQKVAVEKSRLKIPMIFGMDVIHGYETTFPIPLGLAASWDMNLVQQSARVAAKEAASDGINWTFSPMVDISREPRWGRVSEGSGEDPYLGSEIAKNMVYGYQGKDLANGTNILACVKHFALYGAGEAGRDYNTVDMSHVRMFNEYFPPYKAAVDAGVTSVMASFNEVDGVPATGSRWLQTEVLRNQWKFKGFVVTDYTGINEMVEHGMGDLQQVSALALKAGVDMDMVGEGFLTTLKKSLAEGKVTQAEIDMAARRILEAKYDLGLFDNPYKHGDAKLAAKEVYNLENRNIARSAAAQSMVLMKNENQVLPLKKSGTVAVIGPLVNNSLNMAGTWSVATKHAISVNLMQGLQANYGKDVKFLSAKGANIDYDAKLEDIYAAHGKKTDRDNRSKEALLKEAVDIANKADVIVLAIGESAEMSGESSSRTEITIPQSQVDLLNELKKTGKPIAMVLFTGRPLALTNVKDAPDAILNAWFAGSEAGNAIADVLFGKVNPSGKLPMTFPRSLGQVPIYYNAKNTGRPLAQDKVDKCVYERFRSNYMDECNTPLYPFGYGLSYSKFNYSDVTVSNANPKGNQSIQASVTVTNSGNYDGAEVVQLYIRDMVGSITRPVKELKGFQKVMLKKGESKKVTFDITPESLKFYNGDLKYDWEAGEFDIMIGTNSEEVKHSKINWTK
- Km [1]: 1540 µM
- kcat [1]: 248.59 s⁻¹
- Km (purified protein): 1620 µM
- kcat (purified protein): 16.77 s⁻¹
